Assay results: patent US20210388081A1 (Memorial Sloan Kettering, published 2021)

T1: FcRL2, overexpressed on 3T3 cells (UniProt Q96LA5 20-508, limits assumed)
T1 construct: whole, on cells
T1 sequence (looked up): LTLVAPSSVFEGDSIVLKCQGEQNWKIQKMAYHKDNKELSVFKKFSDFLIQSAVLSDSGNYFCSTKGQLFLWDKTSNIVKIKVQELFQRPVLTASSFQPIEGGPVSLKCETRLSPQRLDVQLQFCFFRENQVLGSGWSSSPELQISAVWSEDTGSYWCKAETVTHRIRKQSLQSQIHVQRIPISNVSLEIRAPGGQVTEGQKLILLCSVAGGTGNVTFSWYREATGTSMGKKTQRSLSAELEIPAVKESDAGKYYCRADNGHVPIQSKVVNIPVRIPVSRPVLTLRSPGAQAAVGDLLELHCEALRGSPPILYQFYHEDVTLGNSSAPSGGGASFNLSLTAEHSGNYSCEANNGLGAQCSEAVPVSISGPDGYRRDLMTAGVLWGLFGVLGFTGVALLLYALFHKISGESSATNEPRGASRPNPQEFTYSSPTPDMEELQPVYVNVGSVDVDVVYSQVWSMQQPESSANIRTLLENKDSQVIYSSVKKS

T2: FcRL6, overexpressed on 3T3 cells (UniProt Q6DN72 20-434, limits assumed)
T2 construct: whole, on cells
T2 sequence (looked up): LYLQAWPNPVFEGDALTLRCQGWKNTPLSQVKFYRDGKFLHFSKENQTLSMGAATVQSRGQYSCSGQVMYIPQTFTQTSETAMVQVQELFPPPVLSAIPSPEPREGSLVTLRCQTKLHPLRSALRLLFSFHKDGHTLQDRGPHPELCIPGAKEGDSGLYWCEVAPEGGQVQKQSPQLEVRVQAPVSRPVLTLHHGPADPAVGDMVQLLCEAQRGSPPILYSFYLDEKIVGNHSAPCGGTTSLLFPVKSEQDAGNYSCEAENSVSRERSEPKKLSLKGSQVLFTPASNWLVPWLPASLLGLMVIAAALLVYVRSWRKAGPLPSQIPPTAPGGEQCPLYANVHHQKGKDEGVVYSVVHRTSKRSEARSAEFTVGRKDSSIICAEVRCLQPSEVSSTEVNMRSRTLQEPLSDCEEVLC

T3: Fc Receptor-like 5 (FcRL5), full length, overexpressed on 3T3 or Raji cells (human, UniProt Q96RD9 16-977)
T3 construct: also called 3T3-FcRL5
T3 sequence: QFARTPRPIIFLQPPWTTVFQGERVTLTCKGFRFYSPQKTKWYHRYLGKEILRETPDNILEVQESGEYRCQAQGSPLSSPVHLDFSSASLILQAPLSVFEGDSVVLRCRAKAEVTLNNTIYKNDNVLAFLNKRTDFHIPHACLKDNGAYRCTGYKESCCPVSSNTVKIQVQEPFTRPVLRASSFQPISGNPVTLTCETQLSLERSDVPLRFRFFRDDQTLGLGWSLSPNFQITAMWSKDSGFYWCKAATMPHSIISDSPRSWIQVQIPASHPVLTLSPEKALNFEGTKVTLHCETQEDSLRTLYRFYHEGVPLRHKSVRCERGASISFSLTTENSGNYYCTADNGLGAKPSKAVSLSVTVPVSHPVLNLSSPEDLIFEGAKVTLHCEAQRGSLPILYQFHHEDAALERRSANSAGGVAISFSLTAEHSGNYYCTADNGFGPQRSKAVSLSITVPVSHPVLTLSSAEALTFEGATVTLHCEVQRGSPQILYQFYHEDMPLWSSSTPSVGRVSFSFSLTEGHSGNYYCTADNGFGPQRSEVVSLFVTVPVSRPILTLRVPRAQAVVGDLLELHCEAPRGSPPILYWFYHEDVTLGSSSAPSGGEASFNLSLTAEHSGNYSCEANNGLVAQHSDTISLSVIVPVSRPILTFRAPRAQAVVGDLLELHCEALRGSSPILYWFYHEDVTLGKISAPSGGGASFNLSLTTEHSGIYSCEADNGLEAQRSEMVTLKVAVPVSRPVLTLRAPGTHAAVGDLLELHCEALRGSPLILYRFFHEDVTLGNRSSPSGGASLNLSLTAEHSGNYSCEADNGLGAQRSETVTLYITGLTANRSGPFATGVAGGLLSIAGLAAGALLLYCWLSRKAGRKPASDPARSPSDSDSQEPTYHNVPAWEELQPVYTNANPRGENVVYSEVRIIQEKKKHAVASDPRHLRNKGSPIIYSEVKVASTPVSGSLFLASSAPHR

T4: FcRL1, overexpressed on 3T3 cells (UniProt Q96LA6 17-429, limits assumed)
T4 construct: whole, on cells
T4 sequence (looked up): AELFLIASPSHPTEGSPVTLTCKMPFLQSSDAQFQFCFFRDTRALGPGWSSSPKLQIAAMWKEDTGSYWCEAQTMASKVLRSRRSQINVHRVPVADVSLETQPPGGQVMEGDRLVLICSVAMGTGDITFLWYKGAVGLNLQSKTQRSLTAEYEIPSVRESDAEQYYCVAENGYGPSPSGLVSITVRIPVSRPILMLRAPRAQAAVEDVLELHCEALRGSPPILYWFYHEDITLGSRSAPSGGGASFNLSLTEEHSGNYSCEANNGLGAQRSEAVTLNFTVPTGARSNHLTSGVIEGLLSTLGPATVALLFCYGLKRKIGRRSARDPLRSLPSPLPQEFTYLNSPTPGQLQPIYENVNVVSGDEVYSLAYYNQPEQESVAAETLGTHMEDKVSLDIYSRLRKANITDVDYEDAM

B1: ET200-033 (scFv)
scFv: NFMLTQPHSVSESPGKTVTISCTGSSGSIASNYVQWYQQRPGSAPTTVIYEDNQRPSGVPDRFSGSIDSSSNSASLTISGLKTEDEADYYCQSYDSSNHWVFGGGTKLTVLGSRGGGGSGGGGSGGGGSLEMAQVQLQQWGAGLLKPSETLSLTCAVYGGSFSGYYWSWIRQPPGKGLEWIGEITHSGRSNYNPSLKSRVTISVDTSKNQFSLKLSSVTAADTAVYYCARSSIMSDYWGQGTLVTVSSTSGQAGQHHHHHHGAYPYDVPDYAS
notes: screened as phage clone; entry is VL-linker-VH-His tag-HA tag
B2: ET200-034 (scFv)
scFv: QSVLTQPPSVSGAPGQRVTISCTGSTSNIGAGYDVHWYQQLPGTAPKLLINNNRNRPSGVPDRFSGSKSGTSATLGITGLQTGDEADYYCGTWDGSLTGAVFGGGTKLTVLGSRGGGGSGGGGSGGGGSLEMAEVQLVQSGAEVKKPGSSVKVSCKASGGTFSSYAISWVRQAPGQGLEWMGGIIPIFGTANYAQKFQGRVTITADESTSTAYMELSSLRSEDTAVYYCARGSALDHYDRWGQGTLVTVSSTSGQAGQHHHHHHGAYPYDVPDYAS
notes: as for B1
B3: ET200-038 (scFv)
scFv: QSVLTQPPSVSGAPGQRVTISCTGSSSNIGAGFDVHWYQLLPGTAPKLLIYANSNRPSGVPDRFSGSKSGTSASLAITGLLAEDEADYYCQSYDSSLSGVVFGGGTKLTVLGSRGGGGSGGGGSGGGGSLEMAQVQLVQSGAEVKKPGSSVKVSCKASGGTFSSYAISWVRQAPGQGLEWMGGIIPIFGTANYAQKFQGRVTITADESTSTAYMELSSLRSEDTAVYYCARGASFDRHDNWGQGTLVTVSSTSGQAGQHHHHHHGAYPYDVPDYAS
notes: as for B1
B4: ET200-040 (scFv)
scFv: QSVLTQPPSVSGAPGQRVTISCTGSSSNIGAGYDVHWYQQLPGTAPKLLIYGNSNRPSGVPDRFSGSKSGTSASLAITGLQAEDEADYYCQSYDSSLSGYVFGTGTKVTVLGSRGGGGSGGGGSGGGGSLEMAQVQLVQSGAEVKKPGASVKVSCKVSGYTLTELSMHWVRQAPGKGLEWMGGFDPEDGETIYAQKFQGRVTMTEDTSTDTAYMELSSLRSEDTAVYYCARYSGVYYDWGQGTLVTVSSTSGQAGQHHHHHHGAYPYDVPDYAS
notes: as for B1
B5: ET200-041 (scFv)
scFv: NFMLTQPHSVSGSPGKTVTISCTGSSGSIADNFVQWYQQRPGGVPTTVIFNDDERPSGVPDRFSGSIDTSSNSASLTISGLKTEDEADYYCQSYDNNNRGVFGGGTKLTVLGSRGGGGSGGGGSGGGGSLEMAQVQLVQSGAEVKKPGSSVKVSCKASGGTFSSYAISWVRQAPGQGLEWMGWMNPNSGNTGYAQKFQGRVTMTRNTSISTAYMELSNLRSEDTAVYYCARYYSYGYDWGQGTLVTVSSTSGQAGQHHHHHHGAYPYDVPDYAS
notes: as for B1
B6: ET200-003 (scFv)
scFv: QSVLTQPPSVSVSPGQTASISCSGNKLGTKYVYWYQKRPGQSPVLVMYEDNQRPSGIPERFSGSNSGNTATLTIRGTQTVDEADYYCQAWDSDTFVVFGGGTKVTVLGSRGGGGSGGGGSGGGGSLEMAEVQLVETGGGVVQPGRSLRLSCAASGFTFSSYGMHWVRQAPGKGLEWVAVISHDGSNKYYADSVKGRFTISRDNSKDTLYLQMNSLRGEDTAVYYCARSNQWSGYFSFDYWGQGTLVTVSSTSGQAGQHHHHHHGAYPYDVPDYAS
notes: as for B1

Target: T1, FcRL2, overexpressed on 3T3 cells
Assay: phage clone on 3T3-FcRL2 cells

Binder | binding result
B1 | no binding
B2 | no binding
B3 | no binding
B4 | no binding
B5 | no binding
B6 | no binding

Target: T2, FcRL6, overexpressed on 3T3 cells
Assay: phage clone on 3T3-FcRL6 cells

Binder | binding result
B1 | no binding
B2 | no binding
B3 | no binding
B4 | no binding
B5 | no binding
B6 | no binding

Target: SLAMF9 protein (UniProt Q96A28 19-236, limits assumed)
Assay: phage clone on SLAMF9 protein

Sequence of SLAMF9 protein (Q96A28 19-236 limits assumed): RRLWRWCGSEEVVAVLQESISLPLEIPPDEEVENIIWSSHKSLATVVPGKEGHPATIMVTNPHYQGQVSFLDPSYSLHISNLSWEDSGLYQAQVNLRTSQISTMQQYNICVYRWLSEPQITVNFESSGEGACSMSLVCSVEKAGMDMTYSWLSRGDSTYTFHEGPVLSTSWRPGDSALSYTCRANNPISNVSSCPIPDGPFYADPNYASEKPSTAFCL

Binder | binding result
B1 | no binding
B2 | no binding
B3 | no binding
B4 | no binding
B5 | no binding
B6 | no binding

Target: T3, Fc Receptor-like 5 (FcRL5), full …
Assay: phage clone screening on cells
Method in brief: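 Cell-surface binding was read by flow cytometry using anti-M13 coat protein mAb and PE-labelled anti-mouse Ig. Selected scFv phage were screened on FcRL5-overexpressing 3T3 cells, with 3T3 lines bearing FcRL1, 2, 3, 4 or 6 as negative controls.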

Binder | binding result
B1 | binds
B2 | binds
B3 | binds
B4 | binds
B5 | binds
B6 | binds

Target: T4, FcRL1, overexpressed on 3T3 cells
Assay: phage clone on 3T3-FcRL1 cells

Binder | binding result
B1 | no binding
B2 | no binding
B3 | no binding
B4 | no binding
B5 | no binding
B6 | no binding
